Measured values reported in patent US20250034594A1, “RNA-GUIDED GENOME RECOMBINEERING AT KILOBASE SCALE” (THE BOARD OF TRUSTEES OF THE LELAND STANFORD JUNIOR …, priority 2021, published 2025).

Columns and labels:
Type in all cases: cell-based
[1] = system: gene editing with Cas9 and dCas9; experiment: Screen of 322 new SSAP proteins, activity across all experiments (Cas9 and dCas9, Table 5); set-up: scale not given here
In short: (§1)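 Sequence-mined SSAPs (n=322), synthesized; editing activity screened with Cas9 or dCas9.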

gene editing with Cas9 = experiment: Screen of 322 new SSAP proteins, gene editing activity with Cas9 (Table 5); set-up: Cas9 with SSAP activity: scale not given here
In short: as §1

gene editing with dCas9 = experiment: Screen of 322 new SSAP proteins, gene editing activity with dCas9 (Table 5); set-up: dCas9 with SSAP activity: scale not given here
In short: as §1

Molecule | Activity across all experiments [1] | Cas9 with SSAP activity (gene editing with Cas9) | Cas9 with SSAP activity (normalized) (gene editing with Cas9) | dCas9 with SSAP activity (gene editing with dCas9) | dCas9 with SSAP activity (normalized) (gene editing with dCas9)
SSAP_183: SEQ ID NO: 352; Clostridium sp. CAG: 277 (protein, listed as Clostridium sp.) DFKEELAAKAEVAATTKKSDGVKLTKNMSIVDMIKALEPEIKRALPSVLTPERFVRMALTAVNNTPALAQCTPMSFIAALMNAAQLGLEPNTPLGQAYLIPYKNKKKGVVECQFQIGYKGMIDLVYRNDNVQTIQAHIVRENDHFEYELGLESKLRHIPAMEGRGEMMYVYALFKLTNGGYGFEVLNKEAVIAHAERYSPSYDGFSPWKTDFESKGLELFLILDLSSKQSGK | −2.313 | −0.476 | −0.351 | −4.151 | −0.615
SSAP_107: SEQ ID NO: 276; Ammoniphilus oxalaticus (protein, listed as Ammoniphilus oxalaticus) STKATSNELKNQLANRQGNNAATNNNPANTIAAYLKRMAPEIEKALPAHMDADRLARIALTTIRTTPKLLECTIPSLMGAVMQSAQLGLEPGLIGHCYIIPYGKEATFIIGYKGMIDLARRSGNIESIYAHAVYKNDEFEYEYGLKPNLVHKPAMSDQGDFIGAYAVAHFKDGGYQFEFMPKEEIDKRRNRSAASKGGPWVTDYEEMAKKTVVRHMWKYLPISIEIQQAATQDEVVRKDITEDPMPVDVLDIPFEASDAEETSEEGEINFD | −1.782 | 0.596 | 1.792 | −4.159 | −0.615
SSAP_219: SEQ ID NO: 388; Streptomyces uncialis (protein, listed as Streptomyces uncialis) SQISTAIATRDNGPAAVVEQYRESLALVMPSHLQQRVGAWIRNTQGLLRRDSKLMEAAQNDVGQFVAVLMDAARLGLEPGTEHYYLVPRWNNKKRATEVTGVRGYQGEIELMYRAGAVSSVIVEVVHTQDQFRFRPGRDARPVHDIDWDLEDRGSLRLVYAYAVMKDGATSKVVVLNRQHIAAARAKSDSAAKDWSPWNTDEEAMWLKTAAHRLTKWVPTSAEYLREQIRAQVAVESEQRPEPLPVAPPPAPGTVDADPDDEGPIDGELVD | −1.792 | 0.580 | 0.924 | −4.163 | −0.726
SSAP_109: SEQ ID NO: 278; Bacillus (multispecies) (protein, listed as Bacillus sp.) TQAEKLKNDIAKQEQKNEVAQDDKPKTILDVMMQHKESFEMALPKHLDADRLIRLAVTEFRKNPMLKECTPESLLGAVMQAAQVGLEPDALGSAYLVPYYNKNKNVKEVQLQIGYKGLIELVRRSGQVTSIVANEVYENDEFDFEYGINEKLYHKPTMDADRGKLKCFYAYARFKDGGHAFTVMSVEQINQIRDKFSKSQKNGKHFGPWADHYESMAKKTVIKQLVKYMPISVEIQNQITRDETVHSSFKEEPKPIYAFEESPDIIDAPIEN | −2.932 | −1.697 | −0.475 | −4.168 | −0.640
SSAP_254: SEQ ID NO: 423; Pediococcus pentosaceus (protein, listed as Pediococcus pentosaceus) MNDISKVPMKVLVQQDKVQRMLENTLKGKTRQFTTSLINVVNSNQSLADVDQMSVIKSAMVAASLDLPIDQNLGFMWLVPYKGMATPQIGYKGYIQLALRTGQYKKLNTIVVHEGEMKYWNPLTEDFEYDPKGKESDEVIGYLGYLRMINGFEKTVYWTKQNIEDHRMKFSKMSGKAKPSGVWASNYDAMALKTVMRNLLSKWGIMSIEMQQAVVQDEKAPETDVRDVTPTETNSIDSLLAPEPKGEPINDSNEATVPTNAE | −2.669 | −1.160 | −0.694 | −4.178 | −0.675
SSAP_226: SEQ ID NO: 395; Companilactobacillus furfuricola (protein, listed as Companilactobacillus furfuricola) VNNLAKLPIQTLVKEPKIVEKFESVLGNKSAQFVTSLINVVNSNQSLKNVDQMSVVASAMVAASLDLPINQDLGYMWLVPYGGKAQPQMGYKGYIQLAQRTGQYKHLNAVAVYEDEFQSYNPLTEQLDYEPHFKDRDSSEKPVGYVGYFELTSGFEKTVYWTRKQIDDHRQSFSKMSGKSKPSGVWATNFDAMALKTVLRNLISKWGPMSVEMQKAYESDEHATTISANDIKDIEVQEQEPATDVSQLINGSATEVNVNDSTTNSKDSE | −3.017 | −1.843 | −1.377 | −4.191 | −0.610
SSAP_299: SEQ ID NO: 468; Paenibacillus sp. JCM 10914 (protein, listed as Paenibacillus sp.) TMDYVTKIQDALDRELDAKHDALPSGFKKTRFSENCRAYVKDYKDLQKYDAEEVASVLFKGAVLGLDFLAKECHVITEGSALRFQTDYKGEMTLVKKYSVRPILDIYAKNVREGDDFREEISGGKPLIHFNPRAFNNSKITGSFAVALFTDGGMVYETMPAEEIESIREHYGKNPGSDTWEKSQGEMYKRTVLRRLCKTIEIDFDAEQSLAYEAGSSFEFDREQQPKKRSPFNPPEVEESEVLSNDGITETQ | −4.441 | −4.631 | −0.809 | −4.250 | −0.686
SSAP_76: SEQ ID NO: 245 (protein) ANELGIFSVDNLNMTTIKQYLDGGGKASDAELVLLINLCKQNNMNPFMKEVYFIKYGNQPAQIVVSRDFYRKRAFQNPNFAGIEVGVIVLNKDGVLEHNEGTFKTHEQELVGAWARVHLKNTEIPVYVAVSYDEYVQMKDGHPNKMWTNKPCTMLGKVAESQALRMAFPAEFSGTYGEEELPEPEKEPREVNGVKEPDRAQIESFDKEDYAARKIEELKEKAQPQKEVVKETGEVIDEITAEDF | −2.282 | −0.308 | −0.267 | −4.256 | −0.591
SSAP_272: SEQ ID NO: 441; Clostridium cadaveris (protein, listed as Clostridium cadaveris) ATNSSLKNQLSKKENVTIGNTMQGLLNNPKMKKRFEEILDKKAPQYMSSILNLYNGDTSLQKCEPMSVLSSSMIAATMDLPVDKNLGYAWIVPYKNKAQFQMGYKGYIQLALRTGQYKHINAIEIHEGELVNWNPLTEELEIDFTKKESDKIIGYAGYFELLNGFKKSTYWTKTQIENHRKKFSKSDYGWNKDFDAMAIKTVIRNMLSKWGILSIEMQNAYTADENIIKDSFIDDSENVSANIEDLVEADYTVNQDSLESKEEFEGTPLE | 0.558 | 0.254 | 0.626 | 0.863 | 0.407
SSAP_313: SEQ ID NO: 482; Pedobacter nototheniae (protein, listed as Pedobacter nototheniae) STEQSQQQTAARVPAKFQEGTVDSILKRVSDFQNTGELVLPANYIPENAVRAAWLMLMETTDRNDKPAIEVCTKESIANAFLEMVTKGLSVVKKQCYFVVYGNKLSLEDSYIGKIAIAKREAGVKEVNAVTIYEGDIFKYENDIETGRKRILEHKQELKNINPDKIVGA | −2.345 | −0.432 | −0.643 | −4.259 | −1.301
SSAP_14: SEQ ID NO: 183 (protein) TTALQTLTNKLAERFEMGDGSGLVETLKSSAFAGATVSDAQMIALLVIANQYQLNPWTKEIYAFPGGNGGLTPIVGVDGWVRIINREPQYDGMEFHFTDDYSACTCTIYRKDRSKPIVVTEFMGECKKSSPAWNSHPKRMLRHKAMIQCARLAFGFTGIYDQDEAERIAENEKPPKNITPQNNVVETTAVELISEEQLSQIRQLMQVTGTEEAKILAYIGVQALNQIPKSQAEAVIKKLNLTLDKQNAEKADNGESVGEEIPL | −2.297 | −0.331 | −0.351 | −4.263 | −0.702
SSAP_250: SEQ ID NO: 419; Streptococcus pseudoporcinus (protein, listed as Streptococcus pseudoporcinus) ANQLTVVNTLQSDAVKEKFEAVMGEKANGFVSSVLSVVTNNNLLAKADFNSVYTSAMKAAVLDLPVEPSLGMAYIVPYKGKAQFQIGYKGLIQLAQRSGKVTKLNSGKIYKGQFKSYNALSEELDIDDIYTPKEDEEVVGYFGYMKLSNGFEKITYWTKERVEKHGKKYSQSYDSKFSPWQTNFDAMAEKTVLKSILSTYAPLTIEMQNANDFDNGKNTGIEPLEVKDVTPENDNESLLSDLLEDEPSVDAETGEIMENTELDLDYGSINAK | −4.402 | −4.531 | −1.341 | −4.273 | −1.117
SSAP_164: SEQ ID NO: 333; Clostridium fimetarium (protein, listed as Clostridium fimetarium) ETIDIKQELASQAQTDSKKEVKLTKAMSIAEMIKAMMPEIKRALPSMITPERFTRIALSALNNTPELQACTPMSFISALLNAAQLGLEINSPLGHAYLIPYKNKGVLECQFQIGYLGLIALAYRNELMQTIQAQCVYENDEFLYEYGLNPKLVHRPATSDRGEPVFFYGLFKMINSGFGFCVMSKQEMDEFARTYSKGLASSFSPWKTSYNEMAKKTVIKQALKYAPIKTDFQKALSTDESIKYAISEDMTEAVNEIVSQNTEVA | −3.266 | −2.221 | −0.998 | −4.310 | −0.557
